Where a SMILES comes first, the peptide text is derived from it. Bridges are numbered along the chain shown (N, C = ends). [ ]: non-standard residue; d: D form. 2Nal = N[C@@H](Cc1ccc2ccccc2c1)C(=O)O; Lys(iPr) = CC(C)NCCCC[C@H](N)C(=O)O

The source of these data is publication PMC6814797, “C-terminal–modified LY2510924: a versatile scaffold for targeting C-X-C chemokine receptor type 4” (Scientific Reports, 2019).

One series deals with T1, CXCR4 (Homo sapiens, UniProt P61073).
T1 construct: were determined with CCRF-CEM cells expressing endogenous CXCR4; endogenous in cells; host or cells: CCRF-CEM (human acute lymphoblastic leukemia) whole cells
T1 sequence (P61073 whole entry): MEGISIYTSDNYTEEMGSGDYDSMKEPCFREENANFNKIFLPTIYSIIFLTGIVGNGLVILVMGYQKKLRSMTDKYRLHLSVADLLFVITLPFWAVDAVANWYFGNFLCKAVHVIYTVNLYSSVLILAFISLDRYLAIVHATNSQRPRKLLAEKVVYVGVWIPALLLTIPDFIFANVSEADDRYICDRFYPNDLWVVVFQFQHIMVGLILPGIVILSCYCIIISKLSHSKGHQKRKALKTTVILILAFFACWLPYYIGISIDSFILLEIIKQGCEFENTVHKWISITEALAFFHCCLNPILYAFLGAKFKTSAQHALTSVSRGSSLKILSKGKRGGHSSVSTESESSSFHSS
The experiment in a line: Competitive binding assay: displacement of 125I-SDF-1α from CXCR4-expressing CCRF-CEM cells. To be noted: CCRF-CEM 0.5 × 10^6 cells, 125I-SDF-1α 1 kBq, 0.25 nM SDF-1α, one hour, room temperature per method (b54 says 37 °C); mean ± SD, n = 3. As for the experimental part:
CCRF-CEM cells and ^125I-SDF-1α were used for the competitive binding assay. The competitive binding assay was performed in a 96-well MultiScreen HTS FB plate (Merck) treated with 0.1% polyethyleneimine. RPMI-1640 containing 1% bovine serum albumin (BSA) and 0.05% Tween20 was used for the assay buffer. Briefly, 200-μL reaction mixtures containing CCRF-CEM (0.5 × 10^6 cells), ^125I-SDF-1α (1 kBq), SDF-1α (0.05 pmol; R&D Systems, Minneapolis, MN), and varying concentrations of CXCR4 antagonists were incubated at room temperature for one hour. After the incubation, the cells were washed three times with the assay buffer, and radioactivity counts of cells were determined with a gamma counter. The IC50 values were calculated by using GraphPad Prism version 5.04 (GraphPad Software, San Diego, CA).
Since the purpose of this study was to assess in vivo accumulation to CXCR4-expressing cells, the apparent binding affinities were determined at 37 °C. […] The half-maximal inhibitory concentration (IC50) values of FRM001, its Ga-, Lu-, and Y-complexes, and other CXCR4 antagonists were determined with CCRF-CEM cells expressing endogenous CXCR4[34]. The displacement of ^125I-SDF-1α bound to the CXCR4 with the compounds was also evaluated in the presence of 0.25 nM of SDF-1α.
A general note: Loss of bound radioactivity is the signal in a displacement assay; it reports binding, not function.

A further series can be described thus: physchem. It counts as physicochemical. Particulars: pH 7.4. The protocol:
A solution of ^67Ga-FRM001 (168 kBq, 56.8 pmol of FRM001) in 0.5 mL of 1-octanol was added to a 0.5 mL solution of phosphate-buffered saline (PBS) (pH 7.4). The mixture was vortexed and rotated at room temperature for 5 min. After centrifugation at 13,000 × g for 5 min, the radioactivity concentrations in samples of both the aqueous and organic phases were determined by using a gamma counter, and the logPow values were calculated.

The nature of another series: in vivo. To be noted: female, SCID (C.B-17/Icr-scid/scid), mouse, iv, total radioactivity; for tissue uptake at 4 h: biodistribution. The protocol:
All animal experiments were conducted in accordance with the Guidelines for Proper Conduct of Animal Experiments issued by the Science Council of Japan (June 1, 2006), and all experimental protocols were approved by the Institutional Animal Care and Use Committee of FUJIFILM RI Pharma Co., Ltd. (Permit No. Rin-170802 and Rin-180101). The acute lymphoblastic leukemia CCRF-CEM model was prepared using a published procedure. Briefly, 5 × 10^6 cells mixed with Matrigel (1:1; Corning, Corning, NY) were implanted subcutaneously into the rear flank of female 10-week-old SCID mice (C.B-17/Icr-scid/scid; CLEA Japan, Tokyo). After an average of three weeks, the animals were used in biodistribution and PET imaging studies. Tumor volumes ranged from 709–2,257 mm^3, while the tumor mass-to-body weight ratio was 3.1–9.4%.
Mice were sacrificed at four hours after the injection. Organs of interest were removed, weighed, and the radioactivity counts were determined using a gamma counter. The biodistribution of each sample was expressed as a percentage of the injected dose per gram of wet tissue weight (%ID/g).

Usually IC50 stands for the concentration needed to halve the response being measured. High values mean lower potency, low ones higher potency. `CC(C)NCCCC[C@@H]1NC(=O)[C@H](Cc2ccc(O)cc2)NC(=O)[C@H](Cc2ccccc2)NC(=O)CC[C@H](C(=O)N[C@@H](CCCCNC(C)C)C(=O)N[C@@H](CSC2CC(=O)N(CCNC(=O)CN3CCN(CC(=O)O)CCN(CC(=O)O)CCN(CC(=O)O)CC3)C2=O)C(N)=O)NC(=O)CNC(=O)[C@H](Cc2ccc3ccccc3c2)NC(=O)[C@@H](CCCNC(=N)N)NC1=O` (stereo partly shown) [Y-FRM001] returned a half-inhibitory concentration (IC50) at CXCR4 of 0.89 ± 0.04 nM.

`CC(C)NCCCC[C@H](NC(=O)[C@H]1CCC(=O)N[C@@H](Cc2ccccc2)C(=O)N[C@@H](Cc2ccc(O)cc2)C(=O)N[C@@H](CCCCNC(C)C)C(=O)N[C@H](CCCNC(=N)N)C(=O)N[C@@H](Cc2ccc3ccccc3c2)C(=O)NCC(=O)N1)C(N)=O` [LY2510924, cyclo[Phe-Tyr-Lys(iPr)-D-Arg-2-Nal-Gly-D-Glu]-Lys(iPr)-NH2] (FY[Lys(iPr)][dR][2Nal]G[dE][Lys(iPr)]-NH2; lactam N-7) came in with an IC50 at CXCR4 of 1.37 ± 0.1 nM.

The logD is lipophilicity at a set pH, counting ionised and neutral species. One may read the tissue uptake as the share of the injected amount in each gram of the tissue. Take `CC(C)NCCCC[C@@H]1NC(=O)[C@H](Cc2ccc(O)cc2)NC(=O)[C@H](Cc2ccccc2)NC(=O)CC[C@H](C(=O)N[C@@H](CCCCNC(C)C)C(=O)N[C@@H](CSC2CC(=O)N(CCNC(=O)CN3CCN(CC(=O)O)CCN(CC(=O)O)CCN(CC(=O)O)CC3)C2=O)C(N)=O)NC(=O)CNC(=O)[C@H](Cc2ccc3ccccc3c2)NC(=O)[C@@H](CCCNC(=N)N)NC1=O` (stereo partly shown) [^67Ga-FRM001, metal not drawn]: the logD in “physchem” was -3.23 ± 0.05. The tissue to tissue ratio at 4 h in “in vivo” (0.2 nmol FRM001/mouse) worked out at 59. The tissue uptake at 4 h in the series “in vivo” (0.2 nmol FRM001/mouse, adrenals) came to 1.02 ± 0.192 %ID/g; in “in vivo” (0.2 nmol FRM001/mouse, blood), 0.205 ± 0.033 %ID/g; in the series “in vivo” (0.2 nmol FRM001/mouse, bone), 0.682 ± 0.099 %ID/g; in “in vivo” (0.2 nmol FRM001/mouse, brain) it was 0.015 ± 0.003 %ID/g; in the series “in vivo” (0.2 nmol FRM001/mouse, fat), 0.291 ± 0.137 %ID/g; in the series “in vivo” (0.2 nmol FRM001/mouse, heart) it was 0.385 ± 0.063 %ID/g. For the same compound, the tissue uptake at 4 h amounted to 4.85 ± 0.501 %ID/g in the series “in vivo” (0.2 nmol FRM001/mouse, kidneys); 0.852 ± 0.318 %ID/g in the series “in vivo” (0.2 nmol FRM001/mouse, large intestine); 16.1 ± 2.66 %ID/g in the series “in vivo” (0.2 nmol FRM001/mouse, liver); 2.01 ± 0.301 %ID/g in “in vivo” (0.2 nmol FRM001/mouse, lungs); 0.107 ± 0.018 %ID/g in “in vivo” (0.2 nmol FRM001/mouse, muscle); 0.808 ± 0.247 %ID/g in “in vivo” (0.2 nmol FRM001/mouse, ovary). Besides, the tissue uptake at 4 h in the series “in vivo” (0.2 nmol FRM001/mouse, skin) came out at 0.404 ± 0.076 %ID/g; in the series “in vivo” (0.2 nmol FRM001/mouse, small intestine), 0.355 ± 0.036 %ID/g; in the series “in vivo” (0.2 nmol FRM001/mouse, stomach), 0.381 ± 0.417 %ID/g; in “in vivo” (0.2 nmol FRM001/mouse, thymus) it was 1.57 ± 0.587 %ID/g; in the series “in vivo” (0.2 nmol FRM001/mouse, tumor), 12 ± 1.99 %ID/g; in “in vivo” (0.2 nmol FRM001/mouse, uterus) it was 0.944 ± 0.338 %ID/g. In addition, the tissue uptake at 4 h in the series “in vivo” (0.2 nmol/mouse, pancreas) is 0.198 ± 0.016 %ID/g; in “in vivo” (0.2 nmol/mouse, spleen), 3.77 ± 0.195 %ID/g.

As for `CC(C)NCCCC[C@@H]1NC(=O)[C@H](Cc2ccc(O)cc2)NC(=O)[C@H](Cc2ccccc2)NC(=O)CC[C@H](C(=O)N[C@@H](CCCCNC(C)C)C(=O)N[C@@H](CSC2CC(=O)N(CCNC(=O)CN3CCN(CC(=O)O)CCN(CC(=O)O)CCN(CC(=O)O)CC3)C2=O)C(N)=O)NC(=O)CNC(=O)[C@H](Cc2ccc3ccccc3c2)NC(=O)[C@@H](CCCNC(=N)N)NC1=O` (stereo partly drawn) [FRM001, cyclo[Phe-Tyr-Lys(iPr)-D-Arg-2-Nal-Gly-D-Glu]-Lys(iPr)-Cys(maleimido-mono-amide-DOTA)-NH2], on CXCR4, the IC50 came out at 1.78 ± 0.15 nM.

`CC(C)NCCCC[C@@H]1NC(=O)[C@H](Cc2ccc(O)cc2)NC(=O)[C@H](Cc2ccccc2)NC(=O)CC[C@H](C(=O)N[C@@H](CCCCNC(C)C)C(=O)N[C@@H](CSC2CC(=O)N(CCNC(=O)CN3CCN(CC(=O)O)CCN(CC(=O)O)CCN(CC(=O)O)CC3)C2=O)C(N)=O)NC(=O)CNC(=O)[C@H](Cc2ccc3ccccc3c2)NC(=O)[C@@H](CCCNC(=N)N)NC1=O` (stereo partly shown) [Ga-FRM001] came in with an IC50 at CXCR4 of 2.26 ± 0.51 nM.

Consider `c1ccc(CNCc2ccc(CN3CCCNCCNCCCNCC3)cc2)nc1` [AMD3465, reference compound], for which the IC50 at CXCR4 turned out to be 12.8 ± 1.52 nM.

At CXCR4, `CC(C)NCCCC[C@@H]1NC(=O)[C@H](Cc2ccc(O)cc2)NC(=O)[C@H](Cc2ccccc2)NC(=O)CC[C@H](C(=O)N[C@@H](CCCCNC(C)C)C(=O)N[C@@H](CSC2CC(=O)N(CCNC(=O)CN3CCN(CC(=O)O)CCN(CC(=O)O)CCN(CC(=O)O)CC3)C2=O)C(N)=O)NC(=O)CNC(=O)[C@H](Cc2ccc3ccccc3c2)NC(=O)[C@@H](CCCNC(=N)N)NC1=O` (stereo partly shown) [Lu-FRM001] yielded an IC50 of 2.15 ± 0.14 nM.
